Measured values reported in patent US20110178027A1.

The substances below were run against PC4 (UniProt Q6UW60) (assay: enzyme inhibition).
Chain of PC4 (Q6UW60 114-708): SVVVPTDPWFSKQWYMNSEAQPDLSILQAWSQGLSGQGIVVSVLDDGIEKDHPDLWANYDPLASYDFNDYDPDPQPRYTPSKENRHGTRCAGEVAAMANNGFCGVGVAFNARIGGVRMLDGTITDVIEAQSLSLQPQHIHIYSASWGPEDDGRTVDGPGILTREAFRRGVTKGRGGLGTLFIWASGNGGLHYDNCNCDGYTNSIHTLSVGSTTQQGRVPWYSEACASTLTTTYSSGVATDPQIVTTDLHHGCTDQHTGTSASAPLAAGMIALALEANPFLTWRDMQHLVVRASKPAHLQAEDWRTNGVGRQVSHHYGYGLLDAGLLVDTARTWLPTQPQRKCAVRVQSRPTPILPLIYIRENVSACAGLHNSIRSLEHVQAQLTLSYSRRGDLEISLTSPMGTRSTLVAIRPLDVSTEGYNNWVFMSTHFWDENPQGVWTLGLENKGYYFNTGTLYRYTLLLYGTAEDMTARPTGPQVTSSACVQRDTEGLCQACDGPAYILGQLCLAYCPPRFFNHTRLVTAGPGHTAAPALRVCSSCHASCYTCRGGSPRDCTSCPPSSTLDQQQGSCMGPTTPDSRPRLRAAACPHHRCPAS

Substance	Ki
LLLRVKR-NH2	0.73 µM
LLRVKR-NH2	0.33 µM
LRVKR-NH2	0.63 µM
RVKR-NH2	20.8 µM
